The values that follow come from US20050036947A1, “Target-specific activatable polymeric imaging agents” (General Electric Company, priority 2003, published 2005).

Data set [1] relates to α-fetoprotein (“AFP”) receptor. The note with it: MCF-7 human breast cancer cells; cited from earlier work.
The nature of data set [2]: Relaxivity of the contrast agent (effect on T1 relaxation of water protons). Format: physicochemical. The note with it: for relaxivity: globular vs elongated conformation. From the text: When the carrier molecule is in an elongated conformation, the chelator entity, which provides the MR activity, is free to rotate about its attachment point to the main chain, allowing a […] T1 relaxation time of the surrounding water protons, which are the source of the MR signal. When the carrier molecule is in a globular or highly folded conformation, the paramagnetic ions on the chelator entities tumble at a slower rate (along with the entire molecule). […] A low relaxivity or long relaxation time is associated with an elongated molecule such as a highly substituted Gd-DTPA-PLL, in which the Gd can rotate rapidly, having a relaxivity of about 8 sec^−1 mM^−1. When the relaxivity of a peptide contrast agent was high, the uptake coefficient of such an agent was invariably low, evidently due to the absence of a reptation movement of the contrast agent molecule, resulting in the exclusion of the contrast agent from narrow passages. Thus, it is important to establish that the peptides being compared for optimum length are all of the same conformation.

Data set [3] is described as follows: Cross-sectional diameter of the conjugated polymer. In kind it is physicochemical. Particulars: highly conjugated.

Where no end group is shown, it is not given here. [ ]: non-standard residue; d: D form. Hyp = O=C(O)[C@@H]1C[C@@H](O)CN1

As to “EMTOVNOG (EMT[Hyp]VN[Hyp]G) [linear octapeptide; O represents 4-hydroxyproline]”, in data set [1], the “bind to α-fetoprotein (“AFP”) receptor” value was “bind”. As for “EMTOVNOGQ (EMT[Hyp]VN[Hyp]GQ; also: cyclic, mode not given here) [cyclic peptide; O represents 4-hydroxyproline]”, the “bind to α-fetoprotein (“AFP”) receptor” value in data set [1] is listed as “bind”. On to Gd-DTPA-PLL, for which the relaxivity entry in data set [2] is recorded as “about 8 sec^−1 mM^−1”. Also, the relaxivity in bulk water in data set [2] (highly conjugated (degree of conjugation about 90 percent or higher)) lay in the range of 6.8 to 7.8 mM⁻¹ s⁻¹. Moreover, the cross-sectional diameter result in data set [3] is reported as “about 25 angstroms”. Turning to albumin, the relaxivity entry in data set [2] was “about 15 sec^−1 mM^−1”.
